Assay results from patent publication US9696316B2, “Conformationally dynamic peptides” (SYSTEM OF SYSTEMS ANALYTICS, INC., priority 2009, dated 2017).
Ends that are not written are not given here. * marks the point of attachment. EDANS = O=S(=O)(O)c1cccc2c(NCCN*)cccc12; FAM = 5(6)carboxyfluorescein

How the values were obtained:
Aβ oligomer = Aβ oligomer (Homo sapiens, UniProt P05067); experiment: Aβ oligomer assay with FRET-labeled probes; assay type: binding; conditions: FAM/EDANS labeled, water (FIG. 10 bottom panel B: increased β-sheet, FRET signal)
Chain of Aβ oligomer (P05067 672-713 limits assumed): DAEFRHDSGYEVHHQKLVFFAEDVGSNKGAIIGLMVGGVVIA
From the text: Alternatively, as illustrated in bottom panel B of FIG. 10, a peptide probe can be labeled at each terminus with members of a FRET pair (e.g. FAM and EDANS).

Aβ42 oligomer [1] = molecular target: T1, Aβ42 oligomer (Homo sapiens, UniProt P05067); experiment: Aqueous Aβ oligomer assay, pyrene fluorescence; assay type: binding; conditions: for reactivity with Aβ42 oligomers (transition from pyrene excimer fluorescence to pyrene self-fluorescence): aqueous assay
T1 sequence (P05067 672-713 limits assumed): as above
From the text: The conformation of peptide probe bound to the target protein can also be detected by measuring pyrene fluorescence, on the peptide alone and in combination with the target protein. […] The excimer fluorescence associated with the β-sheet conformation has a different wavelength than the monomer fluorescence associated with the alpha-helix conformation, and the excimer:monomer fluorescence ratio is 9:1. […] The addition of Aβ42 oligomer target protein results in a dose-dependent shift of the excimer:monomer fluorescence ratio to 20:1 at the highest Aβ42 oligomer concentration (0.3 μM). This change in excimer:monomer fluorescence ratio reflects a corresponding conformational change in the peptide, that results in increased β-sheet conformation, and decreased α helix conformation.
An Aβ oligomer assay may be conducted in an aqueous solvent, such as water. […] Upon introduction of Aβ oligomer, the fluorescence profile shifts to primarily self-fluorescence (monomeric) (see FIG. 11), which is associated with reduced β-sheet structure, or increased alpha helix structure.
As discussed above, Peptide 22 (SEQ ID NO: 2) undergoes a conformational change upon interaction with Aβ oligomer. FIG. 11 illustrates the fluorescence spectra for Peptide 22 labeled at each terminus with pyrene and incubated in aqueous conditions for several hours at room temperature in 10 mM Hepes (pH 7.0). […] (solid line=Time 0; dashed line=3 hours; dotted line=18 hours).
Peptide 22 (100 nM) is incubated in water for 15 hours at room temperature with equimolar concentrations ([…]) of several potential Aβ substrates: Aβ42 oligomer (type 1); Aβ42 oligomer (type 2); Aβ1-42 monomer; Aβ1-40 monomer; Aβ1-42 fiber; Aβ1-40 fiber; bovine serum albumin (control substrate); and carbonic anhydrase (control substrate).
With reference to FIG. 13A, Peptide 22 (70 nM) is incubated with […] synthetic Aβ42 oligomer at 25 C, and fluorescence emission spectra is recorded after 3 hours incubation. […] (solid line—no Aβ42 oligomer; dashed/dot line—30 nN Aβ42 oligomer; large dashed line—100 nN Aβ42 oligomer; small dashed line—300 nN Aβ42 oligomer)

[2] = CD analysis of peptide probe conformation under different pH and salt conditions; assay type: physicochemical
Method: As discussed in Example 2, histidine and glutamic acid residue substitutions were introduced into Peptides 22, 38 and 45 (SEQ ID NOs: 2-4) so as to permit the formation salt bridges between those residues. CD analysis can be performed on such peptides under different pH and salt conditions to determine the conformation of the peptide under given conditions.
Peptide 38 (SEQ ID NO:3) labeled at each terminus with a pyrene moiety is used in this example. […] The addition of 500 mM NaCl greatly diminishes the alpha helix conformation in favor of a β-sheet conformation, at both pH levels. Thus, at pH 7, in the presence of 500 mM NaCl (large dashed line), the alpha helix content is 4%, while the fβ-sheet content is 40% (up from 10% without the salt). At pH 4, in the presence of 500 mM NaCl (dashed/dot line), the alpha helix content is 6%, while the β-sheet content is 52% (up from 4% without the salt). […] At greater salt concentrations, the salt bridge is destroyed, and the α helical conformation is no longer stabilized.

Aβ42 oligomer [3] = molecular target: T1, Aβ42 oligomer; experiment: CD analysis of peptide probe with target protein; assay type: binding
From the text: The conformation of the peptide probe bound to the target protein can be assessed by CD analysis. […] The peptide alone is highly alpha helical (36%). Upon mixing of Peptide 38 with the target protein, the peptide undergoes a conformation shift that results in increased β-sheet conformation, and decreased α helix conformation. That is, the secondary structure of Peptide 38 is altered such that the proportion of a helix is halved (18%), while the proportion of β-sheet structure is enhanced from 20% to 31%. […] Circular dichroism (CD) analysis is used to determine the secondary structure of Peptide 22, synthetic Aβ42 oligomer, and a mixture thereof. Samples are incubated in 10 mM sodium phosphate (pH 7.0) for 3 hours at room temperature before measuring CD. For each sample, the relative ellipticity is evaluated from 190-260 nm. […] Each data set represents the average of three separate spectral scans.

[4] = Additional work on stability of the β-sheet conformation of variants; assay type: physicochemical; conditions: relative to parent sequence
[5] = mixed with Aβ42 oligomer (FIG. 8)

Question: For “(FAM)EAA KLVFFAEDEGSRKHAIEGLMEGE(EDANS) ({FAM}-EAAKLVFFAEDEGSRKHAIEGLMEGE(EDANS); not fully specified (C-terminus)) [AD 290, P59, with FAM and EDANS, additional Ala, and solubilizing E residue]”, which “FRET fluorescence behavior upon introduction of Aβ oligomer” value (Aβ oligomer) is on record?
Answer: fluorescence behavior consistent with this type of conformation change

Question: With “(FAM)EFR HDSGYEVHHQKLVFFAEDVGSNKGAIIGLME(EDANS) (EFRHDSGYEVHHQKLVFFAEDVGSNKGAIIGLME; not fully specified; FAM and EDANS labels) [AD292, Aβ residues 3-35, with FAM and EDANS and solubilizing E residue]” as the substance, how does the “FRET fluorescence behavior upon introduction of Aβ oligomer” value (Aβ oligomer) read?
Answer: fluorescence behavior consistent with this type of conformation change

Question: With “(FAM)HHQ KLVFFAEDEGSRKHAIEGLMEGE(EDANS) ({FAM}-HHQKLVFFAEDEGSRKHAIEGLMEGE(EDANS); not fully specified (C-terminus)) [AD 291, P77, with FAM and EDANS and solubilizing E residue]” as the substance, how does the “FRET fluorescence behavior upon introduction of Aβ oligomer” value (Aβ oligomer) read?
Answer: fluorescence behavior consistent with this type of conformation change

Question: With “(FAM)KLVFF AEDVG SNKBA IIELM E(EDANS) [AD293]” as the substance, how does the “FRET fluorescence behavior upon introduction of Aβ oligomer” value (Aβ oligomer) read?
Answer: fluorescence behavior consistent with this type of conformation change

Question: For “KAAA KLVFFAEDVGSNKHAIIELMK (KAAAKLVFFAEDVGSNKHAIIELMK) [Peptide 45, Salt bridge at G29H and G33E; Ala additions to increase alpha-helicity]”, which “reactivity with Aβ42 oligomers (transition from pyrene excimer fluorescence to pyrene self-fluorescence)” value (“reactivity with Aβ42 oligomers” below) (Aβ42 oligomer [1]) is on record?
Answer: react with Aβ42 oligomers

Question: For “KLVFFAEDAAAAKHAIIELMK (KLVFFAEDAAAAKHAIIELMK) [Peptide 38, Salt bridge at G29H and G33E; Ala substitutions to increase alpha-helicity]”, which “alpha helix content (CD)” value ([2]; pH 4, 500 mM NaCl) is on record?
Answer: 6%

Question: What about the “β-sheet content (CD)” value ([2]; pH 4, 500 mM NaCl) of the same substance?
Answer: 52%

Question: What about the “alpha helix content (CD)” value ([2]; pH 4, no added salt) of the same substance?
Answer: 52%

Question: And the “β-sheet content (CD)” value ([2]; pH 4, without the salt)?
Answer: 4%

Question: What about the “alpha helix content (CD)” value ([2]; pH 7, 500 mM NaCl) of the same substance?
Answer: 4%

Question: And the “β-sheet content (CD)” value ([2]; pH 7, 500 mM NaCl)?
Answer: 40%

Question: What about the “alpha helix content (CD)” value ([2]; pH 7, no added salt) of the same substance?
Answer: 38%

Question: And the “β-sheet content (CD)” value ([2]; pH 7, without the salt)?
Answer: 10%

Question: What about the “proportion of alpha helix (CD)” value (Aβ42 oligomer [3]; [5]) of the same substance?
Answer: 18%

Question: And the “proportion of β-sheet structure (CD)” value (Aβ42 oligomer [3]; [5])?
Answer: 31%

Question: What about the “proportion of alpha helix (CD)” value (Aβ42 oligomer [3]; peptide alone (FIG. 8)) of the same substance?
Answer: 36%

Question: And the “proportion of β-sheet structure (CD)” value (Aβ42 oligomer [3]; peptide alone (FIG. 8))?
Answer: 20%

Question: And the “reactivity with Aβ42 oligomers” value (Aβ42 oligomer [1])?
Answer: react with Aβ42 oligomers

Question: What about the “preferential binding by state of self-aggregation of Aβ protein” value (Aβ42 oligomer [1]; versus monomers, fibers and control proteins) of the same substance?
Answer: preferentially binds to Aβ protein in the form of soluble Aβ oligomers

Question: For “KLVFFAEDVGDNKHADIELMK (KLVFFAEDVGDNKHADIELMK) [AD327, P22, with point mutation S26D, I31D]”, which “effect of the substitutions on the β-sheet conformation of the probe” value (shortened to “effect of the substitutions”) [4] is on record?
Answer: destabilize the β-sheet conformation

Question: For “KLVFFAEDVGDNKHAIIELMK (KLVFFAEDVGDNKHAIIELMK) [AD325, P22, with point mutation 526D]”, which “effect of the substitutions” value [4] is on record?
Answer: destabilize the β-sheet conformation

Question: With “KLVFFAEDVGSNKDADIELMK (KLVFFAEDVGSNKDADIELMK) [AD323, P22, with point mutations H29D and I31D]” as the substance, how does the “effect of the substitutions” value [4] read?
Answer: destabilize the β-sheet conformation

Question: For “KLVFFAEDVGSNKDAIIELMK (KLVFFAEDVGSNKDAIIELMK) [AD328, P22, with point mutation H29D]”, which “effect of the substitutions” value [4] is on record?
Answer: destabilize the β-sheet conformation

Question: For “KLVFFAEDVGSNKGAISGLMK (KLVFFAEDVGSNKGAISGLMK) [Peptide 132S, Wildtype, with I32S point mutation]”, which “effect of the substitutions” value [4] is on record?
Answer: destabilize the β-sheet conformation

Question: Which “effect of the substitutions” value [4] does the source give for “KLVFFAEDVGSNKHADIELMK (KLVFFAEDVGSNKHADIELMK) [AD330, P22, with point mutation I31D]” here?
Answer: destabilize the β-sheet conformation

Question: For “KLVFFAEDVGSNKHAIIEDMK (KLVFFAEDVGSNKHAIIEDMK) [AD329, P22, with point mutation L34D]”, which “effect of the substitutions” value [4] is on record?
Answer: destabilize the β-sheet conformation

Question: For “KLVFFAEDVGSNKKAIIELMK (KLVFFAEDVGSNKKAIIELMK) [Peptide 22 variation 2, Salt bridge at G29K and G33E]”, which “reactivity with Aβ42 oligomers” value (Aβ42 oligomer [1]) is on record?
Answer: react with Aβ42 oligomers

Question: Which “reactivity with Aβ42 oligomers” value (Aβ42 oligomer [1]) does the source give for “KLVFFAEDVGSNKRAIIELMK (KLVFFAEDVGSNKRAIIELMK) [Peptide 22 variation 1, Salt bridge at G29R and G33E]” here?
Answer: react with Aβ42 oligomers

Question: For “KLVSFAEDVGSNKHAIIELMK (KLVSFAEDVGSNKHAIIELMK) [GM6 variation 1, P22, with point mutation F19S]”, which “effect of the substitutions” value [4] is on record?
Answer: destabilize the β-sheet conformation

Question: Which “effect of the substitutions” value [4] does the source give for “KLVSFAEDVGSNKHAIIEPMK (KLVSFAEDVGSNKHAIIEPMK) [GM6, P22, with point mutations F19S, L34P]” here?
Answer: destabilize the β-sheet conformation
